± gives the uncertainty stated by the source.
B1: Arginine-glutamic acid dipeptide repeats protein, residues 502 to 543; numbered along this chain, Q9P2R6 (parent)
chain: LKGYACRHCFTTTSKDWHHGGRENILLCTDCRIHFKKYGELP

Variants of: B1
Assay: abundance fitness (aPCA) (normalised: wild type 0, dead -1); higher = more abundant; growth selection in yeast, the domain comes from the species named
Details: Homo sapiens

Variant	abundance fitness
LKGYACRHCFTTKSKDWHHGGRENILLCTDCRIHFKKYGELP [T13K]	0.018 ± 0.052
LKGYACRHCFTTQSKDWHHGGRENILLCTDCRIHFKKYGELP [T13Q]	-0.039 ± 0.058
LKGYACRHCFTTCSKDWHHGGRENILLCTDCRIHFKKYGELP [T13C]	-0.164 ± 0.058
LKGYACRHCFTTVSKDWHHGGRENILLCTDCRIHFKKYGELP [T13V]	-0.125 ± 0.04
LKGYACRHCFTTFSKDWHHGGRENILLCTDCRIHFKKYGELP [T13F]	-0.179 ± 0.11
LKGYACRHCFTTYSKDWHHGGRENILLCTDCRIHFKKYGELP [T13Y]	-0.223 ± 0.17
LKGYACRHCFTTHSKDWHHGGRENILLCTDCRIHFKKYGELP [T13H]	-0.045 ± 0.079
LKGYACRHCRTTTSKDWHHGGRENILLCTDCRIHFKKYGELP [F10R]	-0.014 ± 0.032
LKGYACRHCPTTTSKDWHHGGRENILLCTDCRIHFKKYGELP [F10P]	-0.279 ± 0.071
LKGYACRHCTTTTSKDWHHGGRENILLCTDCRIHFKKYGELP [F10T]	-0.099 ± 0.045
LKGYACRHCWTTTSKDWHHGGRENILLCTDCRIHFKKYGELP [F10W]	-0.054 ± 0.036
LKGYACRHCSTTTSKDWHHGGRENILLCTDCRIHFKKYGELP [F10S]	0.015 ± 0.048
LKGYACRHCVTTTSKDWHHGGRENILLCTDCRIHFKKYGELP [F10V]	-0.331 ± 0.035
LKGYACRHCQTTTSKDWHHGGRENILLCTDCRIHFKKYGELP [F10Q]	0.03 ± 0.044
LKGYACRHCYTTTSKDWHHGGRENILLCTDCRIHFKKYGELP [F10Y]	-0.101 ± 0.063
LKGYACRHCFTTTSKDNHHGGRENILLCTDCRIHFKKYGELP [W17N]	-0.276 ± 0.084
LKGYACRHCFTTTSKDAHHGGRENILLCTDCRIHFKKYGELP [W17A]	-0.191 ± 0.036
LKGYACRHCFTTTSKDLHHGGRENILLCTDCRIHFKKYGELP [W17L]	-0.186 ± 0.036
LKGYACRHCFTTTSKDGHHGGRENILLCTDCRIHFKKYGELP [W17G]	-0.154 ± 0.03
LKGYACRHCFTTTSKDCHHGGRENILLCTDCRIHFKKYGELP [W17C]	-0.295 ± 0.062

Variant	abundance fitness
LKGYACRHCFTTTSKDDHHGGRENILLCTDCRIHFKKYGELP [W17D]	-0.197 ± 0.075
LKGYACRHCFTTTSKDMHHGGRENILLCTDCRIHFKKYGELP [W17M]	-0.195 ± 0.038
LKGYACRHCFTTTSKDPHHGGRENILLCTDCRIHFKKYGELP [W17P]	-0.149 ± 0.053
LKGYACRHCFTTTSKDQHHGGRENILLCTDCRIHFKKYGELP [W17Q]	-0.213 ± 0.053
LKGYACRHCFTTTSKDKHHGGRENILLCTDCRIHFKKYGELP [W17K]	-0.274 ± 0.057
LKGYACRHCFTTTSGDWHHGGRENILLCTDCRIHFKKYGELP [K15G]	-0.174 ± 0.033
LKGYACRHCFTTTSHDWHHGGRENILLCTDCRIHFKKYGELP [K15H]	-0.041 ± 0.06
LKGYACRHCFTTTSYDWHHGGRENILLCTDCRIHFKKYGELP [K15Y]	-0.229 ± 0.09
LKGYACRHCFTTTSSDWHHGGRENILLCTDCRIHFKKYGELP [K15S]	-0.162 ± 0.034
LKGYACRHCFTTTSPDWHHGGRENILLCTDCRIHFKKYGELP [K15P]	-0.095 ± 0.049
LKGYACRHCFTTTSQDWHHGGRENILLCTDCRIHFKKYGELP [K15Q]	-0.049 ± 0.048
LKGYACRHCFTTTSEDWHHGGRENILLCTDCRIHFKKYGELP [K15E]	0.007 ± 0.035
LKGYACRHCFTTTSMDWHHGGRENILLCTDCRIHFKKYGELP [K15M]	-0.064 ± 0.095
LKGYACRHCFTTTSADWHHGGRENILLCTDCRIHFKKYGELP [K15A]	-0.107 ± 0.041
LKGYACRHCFTTTSWDWHHGGRENILLCTDCRIHFKKYGELP [K15W]	-0.489 ± 0.046
LKGYACRHCFTTTSIDWHHGGRENILLCTDCRIHFKKYGELP [K15I]	-0.222 ± 0.081
LKGYACRHCFTTTSTDWHHGGRENILLCTDCRIHFKKYGELP [K15T]	-0.002 ± 0.049
LKGYACRHCFTTTSCDWHHGGRENILLCTDCRIHFKKYGELP [K15C]	-0.313 ± 0.045
LKGYACRHCFTTTSDDWHHGGRENILLCTDCRIHFKKYGELP [K15D]	-0.099 ± 0.1
LKGYACRHCFTTTSRDWHHGGRENILLCTDCRIHFKKYGELP [K15R]	-0.053 ± 0.037

Variant	abundance fitness
LKGYACRHCFTTTSVDWHHGGRENILLCTDCRIHFKKYGELP [K15V]	-0.091 ± 0.048
LKGYACRHCFTTTSNDWHHGGRENILLCTDCRIHFKKYGELP [K15N]	-0.324 ± 0.073
LKGYACRHCFTTTSKFWHHGGRENILLCTDCRIHFKKYGELP [D16F]	-0.48 ± 0.081
LKGYACRHCFTTTSKPWHHGGRENILLCTDCRIHFKKYGELP [D16P]	-0.701 ± 0.08
LKGYACRHCFTTTSKAWHHGGRENILLCTDCRIHFKKYGELP [D16A]	-0.358 ± 0.038
LKGYACRHCFTTTSKCWHHGGRENILLCTDCRIHFKKYGELP [D16C]	-0.633 ± 0.47
LKGYACRHCFTTTSKRWHHGGRENILLCTDCRIHFKKYGELP [D16R]	-0.451 ± 0.038
LKGYACRHCFTTTSKMWHHGGRENILLCTDCRIHFKKYGELP [D16M]	-0.397 ± 0.039
LKGYACRHCFTTTSKVWHHGGRENILLCTDCRIHFKKYGELP [D16V]	-0.412 ± 0.036
LKGYACRHCFTTTSKSWHHGGRENILLCTDCRIHFKKYGELP [D16S]	-0.263 ± 0.049
LKGYACRHCFTTTSKHWHHGGRENILLCTDCRIHFKKYGELP [D16H]	-0.501 ± 0.093
LKGYACRHCFTTTSKQWHHGGRENILLCTDCRIHFKKYGELP [D16Q]	-0.449 ± 0.062
LKGYACRHCFTTTSKGWHHGGRENILLCTDCRIHFKKYGELP [D16G]	-0.342 ± 0.038
LKGYACRHCFTTTSKEWHHGGRENILLCTDCRIHFKKYGELP [D16E]	-0.15 ± 0.041
LKGYACRHCFTTTSKLWHHGGRENILLCTDCRIHFKKYGELP [D16L]	-0.442 ± 0.037
LKGYACRHCFTTTSKTWHHGGRENILLCTDCRIHFKKYGELP [D16T]	-0.391 ± 0.06
LKGYACRHCFTTTSKWWHHGGRENILLCTDCRIHFKKYGELP [D16W]	-0.515 ± 0.042
LKGYACRHCFTTTSKYWHHGGRENILLCTDCRIHFKKYGELP [D16Y]	-0.555 ± 0.079
LKGYACRHCFTTTSKKWHHGGRENILLCTDCRIHFKKYGELP [D16K]	-0.154 ± 0.049
LKGYACRHCFTTTSKNWHHGGRENILLCTDCRIHFKKYGELP [D16N]	-0.277 ± 0.064

From the Human Domainome abundance scans (Beltran et al. 2025)
